Measured values taken from paper PMC3487758, “Fibrillin-1 Mutations Causing Weill-Marchesani Syndrome and Acromicric and Geleophysic Dysplasias Disrupt Heparan Sulfate Interactions” (PLoS ONE, 2012).

Target: the molecule itself
Assay: SEC-MALS; MALLS on each separated gel filtration peak; Wyatt EOS 18-angle light scattering detector, Optilab r-EX refractometer

B1: Fibrillin-1 fragment PF17-1 WMS (Weill-Marchesani syndrome deletion mutant) (domain or fragment)
chain: not shown
notes: human fibrillin-1, fragment PF17-1 (exons 30-43, residues 1238-1807) with the 8 amino acid deletion in TB5 found in patients with WMS; Purifies as a monomer (86%) and a disulfide-linked dimer (14%); the deletion removes Cys 1695; also called WMS mutant
- stoichiometry N: 2
